T1: human GIP receptor (human, UniProt P48546 22-466)
T1 sequence (looked up): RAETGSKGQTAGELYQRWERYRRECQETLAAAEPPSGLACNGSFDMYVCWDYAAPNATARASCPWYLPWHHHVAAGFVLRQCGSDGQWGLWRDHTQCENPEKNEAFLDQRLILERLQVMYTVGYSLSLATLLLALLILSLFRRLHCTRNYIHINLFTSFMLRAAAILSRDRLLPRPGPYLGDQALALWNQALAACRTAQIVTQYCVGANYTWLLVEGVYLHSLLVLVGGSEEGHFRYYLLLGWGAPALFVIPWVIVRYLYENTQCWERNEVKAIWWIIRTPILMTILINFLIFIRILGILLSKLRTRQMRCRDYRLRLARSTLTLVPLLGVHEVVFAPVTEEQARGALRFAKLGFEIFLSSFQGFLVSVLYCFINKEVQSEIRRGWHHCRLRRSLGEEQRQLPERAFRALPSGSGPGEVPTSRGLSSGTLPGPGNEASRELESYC

T2: mouse GLP-1 receptor (mouse, UniProt O35659 22-463)
T2 sequence (looked up): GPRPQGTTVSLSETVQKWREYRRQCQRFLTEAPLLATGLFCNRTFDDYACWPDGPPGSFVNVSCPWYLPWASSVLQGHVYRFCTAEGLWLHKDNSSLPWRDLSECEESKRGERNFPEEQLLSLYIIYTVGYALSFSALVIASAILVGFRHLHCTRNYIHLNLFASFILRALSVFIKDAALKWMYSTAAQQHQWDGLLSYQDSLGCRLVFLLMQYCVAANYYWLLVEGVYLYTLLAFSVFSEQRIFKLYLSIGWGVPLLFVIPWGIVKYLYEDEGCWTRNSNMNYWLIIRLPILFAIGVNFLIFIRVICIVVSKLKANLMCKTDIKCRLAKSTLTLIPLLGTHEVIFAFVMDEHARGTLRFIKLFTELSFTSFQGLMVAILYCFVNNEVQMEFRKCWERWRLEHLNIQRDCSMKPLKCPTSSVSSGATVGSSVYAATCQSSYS

T3: mouse GIP receptor (mouse, UniProt Q0P543 19-460)
T3 sequence (looked up): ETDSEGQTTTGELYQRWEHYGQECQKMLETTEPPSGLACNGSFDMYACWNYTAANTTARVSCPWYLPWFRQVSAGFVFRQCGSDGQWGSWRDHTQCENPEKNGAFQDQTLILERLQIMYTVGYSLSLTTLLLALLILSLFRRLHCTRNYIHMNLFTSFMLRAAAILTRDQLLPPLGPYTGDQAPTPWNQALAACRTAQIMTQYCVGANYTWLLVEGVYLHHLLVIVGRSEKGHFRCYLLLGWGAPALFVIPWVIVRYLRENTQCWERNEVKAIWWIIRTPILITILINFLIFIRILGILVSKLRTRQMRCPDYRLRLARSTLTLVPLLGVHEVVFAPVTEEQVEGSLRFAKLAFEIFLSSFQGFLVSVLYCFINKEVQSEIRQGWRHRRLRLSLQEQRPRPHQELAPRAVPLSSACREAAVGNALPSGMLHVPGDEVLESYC

T4: rat GLP-1 receptor (rat, UniProt P32301 22-463)
T4 sequence (looked up): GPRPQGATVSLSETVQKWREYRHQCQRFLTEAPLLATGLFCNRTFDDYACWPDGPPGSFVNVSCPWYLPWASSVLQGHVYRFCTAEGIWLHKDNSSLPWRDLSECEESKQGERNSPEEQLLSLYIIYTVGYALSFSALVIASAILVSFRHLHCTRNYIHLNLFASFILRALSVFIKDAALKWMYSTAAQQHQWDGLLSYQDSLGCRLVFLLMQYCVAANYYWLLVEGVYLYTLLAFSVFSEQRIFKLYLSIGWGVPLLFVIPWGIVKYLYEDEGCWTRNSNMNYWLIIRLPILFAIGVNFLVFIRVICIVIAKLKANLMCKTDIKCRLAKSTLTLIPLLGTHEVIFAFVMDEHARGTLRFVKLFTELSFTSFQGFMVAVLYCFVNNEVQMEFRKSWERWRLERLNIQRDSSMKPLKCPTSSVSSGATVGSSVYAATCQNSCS

T5: rat GIP receptor (rat, UniProt P43219 19-455)
T5 sequence (looked up): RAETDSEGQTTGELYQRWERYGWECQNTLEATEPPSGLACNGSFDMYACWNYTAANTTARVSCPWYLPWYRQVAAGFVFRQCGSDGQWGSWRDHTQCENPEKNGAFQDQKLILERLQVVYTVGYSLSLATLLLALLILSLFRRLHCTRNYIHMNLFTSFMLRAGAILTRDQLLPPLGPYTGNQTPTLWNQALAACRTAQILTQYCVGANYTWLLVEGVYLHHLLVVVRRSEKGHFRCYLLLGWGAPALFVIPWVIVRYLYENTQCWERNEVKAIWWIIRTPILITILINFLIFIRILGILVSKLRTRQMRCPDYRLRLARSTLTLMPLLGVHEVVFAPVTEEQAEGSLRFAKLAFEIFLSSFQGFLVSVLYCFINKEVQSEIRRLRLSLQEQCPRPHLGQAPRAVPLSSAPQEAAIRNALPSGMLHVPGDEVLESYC


How the values were obtained:
Assay in all cases: cell-based or functional assay
human GLP-1 receptor = human GLP-1 receptor (human, UniProt P43220 24-463)
human glucagon receptor = human glucagon receptor (human, UniProt P47871 26-477)
human GIP receptor = molecular target: T1, human GIP receptor
mouse GLP-1 receptor = molecular target: T2, mouse GLP-1 receptor
mouse GIP receptor = molecular target: T3, mouse GIP receptor
rat GLP-1 receptor = molecular target: T4, rat GLP-1 receptor
rat GIP receptor = molecular target: T5, rat GIP receptor

Binder | cAMP EC50 (human GLP-1 receptor) [nM] | cAMP EC50 (human glucagon receptor) [nM] | cAMP EC50 (human GIP receptor) [nM] | cAMP EC50 (mouse GLP-1 receptor) [nM] | cAMP EC50 (mouse GIP receptor) [nM] | cAMP EC50 (rat GLP-1 receptor) [nM] | cAMP EC50 (rat GIP receptor) [nM] | further results
IP296 (Fc fusion) YSEGTFTSDYSKLLEEEAVRCFIEWLVKGGPSSGAPPCSGGGGGGGGGGGGGGGGGGGGGGGGACPPC | 0.57 | > 1120 | 0.018 | 1.4 | 110 | 0.055 | 0.46 | cAMP EC50, Batch 2 (human GLP-1 receptor): 0.39 nM; cAMP EC50, Batch 3 (human GLP-1 receptor): 0.37 nM; cAMP EC50, Batch 4 (human GLP-1 receptor): 0.29 nM; cAMP EC50, Batch 2 (human glucagon receptor): > 784 nM; cAMP EC50, Batch 3 (human glucagon receptor): > 4490 nM; cAMP EC50, Batch 4 (human glucagon receptor): 6700 nM; cAMP EC50, Batch 2 (human GIP receptor): 0.021 nM; cAMP EC50, Batch 3 (human GIP receptor): 0.014 nM; cAMP EC50, Batch 4 (human GIP receptor): 0.011 nM; cAMP EC50, Batch 2 (mouse GLP-1 receptor): 0.6 nM; cAMP EC50, Batch 4 (mouse GLP-1 receptor): 0.64 nM; cAMP EC50, Batch 2 (mouse GIP receptor): 55 nM; cAMP EC50, Batch 4 (mouse GIP receptor): 65 nM; cAMP EC50, Batch 2 (rat GLP-1 receptor): 0.028 nM; cAMP EC50, Batch 4 (rat GLP-1 receptor): 0.027 nM; cAMP EC50, Batch 4 (rat GIP receptor): 0.14 nM
IP354 (Fc fusion) YSEGMHTSDFSKLLEEEAVRLFIEWLLAGGGGGGSGGGGSGGGGSGGGGSATHTCPPC | 1.4 | > 7370 | 0.024 | 13 | 270 | 3.6 | 0.74 | –
IP355 (Fc fusion) YSEGTHTSLFSKLLEEEAVRLFIEWLLAGGGGGGSGGGGSGGGGSGGGGSATHTCPPC | 8.8 | > 527 | 0.17 | 220 | 17 | 20 | 0.5 | –
IP324 (Fc fusion) YSEGTFTSDYSKLLEEEAVRLFIEWLVKGPGGGGGSGGGGSGGGGSGGGGSGGGGSGGGGSGGGGSA | 0.4 | 470 | 0.037 | 0.72 | 240 | 0.04 | 0.14 | cAMP EC50, Batch 2 (human GLP-1 receptor): 0.14 nM; cAMP EC50, Batch 2 (human glucagon receptor): 120 nM; cAMP EC50, Batch 2 (human GIP receptor): 0.016 nM; cAMP EC50, Batch 2 (mouse GLP-1 receptor): 0.391 nM; cAMP EC50, Batch 2 (mouse GIP receptor): 67.5 nM; cAMP EC50, Batch 2 (rat GLP-1 receptor): 0.0363 nM; cAMP EC50, Batch 2 (rat GIP receptor): 0.141 nM
IP323 (Fc fusion) YSEGTFTSDYSKLLEEEAVRLFIEWLVKGPGGGGGSGGGGSGGGGSGGGGSGGGGSGGGGSA | 0.2 | 190 | 0.017 | 0.34 | 65 | 0.019 | 0.082 | –
IP327 (Fc fusion) YSEGTFTSDYSKLLEEEAVRLFIEWLLAGGGGGGGSGGGGSGGGGSGGGGSGGGGSGGGGSA | 0.25 | 10 | 0.016 | 0.7 | 1.2 | 0.032 | 0.028 | –
IP325 (Fc fusion) YSEGTFTSDYSKLLEEEAVRLFIEWLVKGPGGGGGSGGGGSGGGGSGGGGSGGGGSGGGGSGGGGSGGGGSA | 0.46 | > 455 | 0.037 | 0.64 | 170 | 0.035 | 0.13 | cAMP EC50, Batch 2 (human GLP-1 receptor): 0.16 nM; cAMP EC50, Batch 2 (human glucagon receptor): 110 nM; cAMP EC50, Batch 2 (human GIP receptor): 0.018 nM; cAMP EC50, Batch 2 (mouse GLP-1 receptor): 0.488 nM; cAMP EC50, Batch 2 (mouse GIP receptor): 57.2 nM; cAMP EC50, Batch 2 (rat GLP-1 receptor): 0.0519 nM; cAMP EC50, Batch 2 (rat GIP receptor): 0.154 nM
IP328 (Fc fusion) YSEGTFTSDYSKLLEEEAVRLFIEWLLAGGGGGGGSGGGGSGGGGSGGGGSGGGGSGGGGSGGGGSGGGGSA | 1.2 | 43 | 0.085 | 3.9 | 5.4 | 0.21 | 0.17 | cAMP EC50, Batch 2 (human GLP-1 receptor): 0.33 nM; cAMP EC50, Batch 2 (human glucagon receptor): 13 nM; cAMP EC50, Batch 2 (human GIP receptor): 0.033 nM; cAMP EC50, Batch 2 (mouse GLP-1 receptor): 1.3 nM; cAMP EC50, Batch 2 (mouse GIP receptor): 2.2 nM; cAMP EC50, Batch 2 (rat GLP-1 receptor): 0.12 nM; cAMP EC50, Batch 2 (rat GIP receptor): 0.092 nM
IP322 (Fc fusion) YSEGTFTSDYSKLLEEEAVRLFIEWLVKGPGGGGGSGGGGSGGGGSGGGGSGGGGSA | 0.29 | 260 | 0.026 | 0.41 | 8.3 | 0.025 | 0.11 | –
IP326 (Fc fusion) YSEGTFTSDYSKLLEEEAVRLFIEWLLAGGGGGGGSGGGGSGGGGSGGGGSGGGGSA | 0.37 | 15 | 0.027 | 0.87 | 1.7 | 0.039 | 0.037 | –
IP297 (Fc fusion) YSEGTFTSDYSKLLEEEAVRLFIEWLLAGGGGGGGGGGGGGGGGGGGGGGGGGACPPC | 0.19 | 31 | 0.015 | 0.82 | 8.1 | 0.028 | 0.089 | –
IP300 (Fc fusion) YSEGTFTSDYSKLLEEEAVRLFIEWLLAGAPPGGGGGGGGGGGGGGGGGGGGGACPPC | 0.21 | 21 | 0.013 | 0.94 | 0.9 | 0.027 | 0.069 | –
IP213 (Fc fusion) YSEGTFTSDYSKLLEEEAVRLFIEWLLAGGAAAGGSGSTASSGSGSATGGGGAATHTCPPCPAPEF | 0.087 | 18 | 0.0059 | 0.82 | 2.5 | 0.087 | 0.054 | –
IP087 (Fc fusion) YSEGTFTSDYSKLLEEEAVRLFIEWLLAGPAAAGGSGSTASSGSGSATGGGGAATHTCPPCPAPEF | 0.28 | 9.6 | 0.0086 | 1.2 | 5.7 | 0.11 | 0.17 | –

Source: patent US20160185837A1 (AstraZeneca / MedImmune, published 2016)
